Experimental data as given in publication PMC11582070, “Template-assisted covalent modification underlies activity of covalent molecular glues” (Nature Chemical Biology, 2023).

Target: recombinant BRD4BD2 (residues 368-440) (human) (UniProt O60885)

Sequence of GAK_(14–351)-HA (O14976 14-351): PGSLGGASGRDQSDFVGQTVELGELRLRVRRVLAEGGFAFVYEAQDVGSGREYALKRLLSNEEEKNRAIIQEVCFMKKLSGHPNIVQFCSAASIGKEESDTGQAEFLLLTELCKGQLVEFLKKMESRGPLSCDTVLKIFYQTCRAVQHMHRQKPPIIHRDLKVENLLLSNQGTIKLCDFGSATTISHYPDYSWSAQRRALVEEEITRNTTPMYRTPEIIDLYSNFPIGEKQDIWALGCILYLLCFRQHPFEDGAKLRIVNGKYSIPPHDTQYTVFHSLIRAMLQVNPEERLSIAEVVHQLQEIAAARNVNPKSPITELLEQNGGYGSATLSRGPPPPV

## GAK_(14–351)-HA (from UniProt O14976 14-351) (domain or fragment)
  intact protein mass spectrometry: MMH2 adduct on recombinant GAK 14-351 with BRD4BD2 present, 4 °C 16 h (approximately 2% without BRD4BD2): 22%
  intact protein mass spectrometry: TMX1 adduct on recombinant GAK 14-351 with BRD4BD2 present, 4 °C 16 h (none detectable without BRD4BD2): 5%
